# Measurements reported in patent US8030043B2, “β-galactoside-α2,3-sialyltransferase, a gene encoding thereof, and a method for producing thereof” (Japan Tobacco Inc., priority 2005, dated 2011).
# Substitutions are numbered along the chain they refer to.
# B1: ISH467-N0C0 first clone: E. coli-expressed full-length JT-ISH-467 sialyltransferase with Asn to Ser change at position 190 of SEQ ID NO: 2 (protein, listed as Photobacterium phosphoreum)
# chain: MFVFCKKIFFLIFISLMILGGCNSDSKHNNSDGNITKNKTIEVYVDRATLPTIQQMTQIINENSNNKKLISWSRYPINDETLLESINGSFFKNRPELIKSLDSMILTNEIKKVIINGNTLWAVDVVNIIKSIEALGKKTEIELNFYDDGSAEYVRLYDFSRLPESEQEYKISLSKDNIQSSINGTQPFDSSIENIYGFSQLYPTTYHMLRADIFETNLPLTSLKRVISNNIKQMKWDYFTTFNSQQKNKFYNFTGFNPEKIKEQYKASPHENFIFIGTNSGTATAEQQIDILTEAKKPDSPIITNSIQGLDLFFKGHPSATYNQQIIDAHNMIEIYNKIPFEALIMTDALPDAVGGMGSSVFFSLPNTVENKFIFYKSDTDIENNALIQVMIELNIVNRNDVKLISDLQ
# B2: ISH467-N0C0 second clone: E. coli-expressed full-length JT-ISH-467 sialyltransferase, nucleotide sequence of SEQ ID NO: 1, no change (protein, listed as Photobacterium phosphoreum)
# chain: B1 chain with S190N
# modifications: CDS (1)..(1230) /gene=“467-23ST” /product=“Beta-galactoside- alpha 2,3-sialyltransferase”
# B3: ISH467-N2C0 first clone: JT-ISH-467 sialyltransferase lacking signal peptide region, Phe replaced by Ser at position 159 (protein, listed as Photobacterium phosphoreum)
# chain: B1 chain with F159S, S190N
# modifications: lacks signal peptide; cited entry is nucleotide; CDS (1)..(1230) /gene=“467-23ST” /product=“Beta-galactoside- alpha 2,3-sialyltransferase”
# B4: FAJ-N0C0 first clone: E. coli-expressed full-length JT-FAJ-16 sialyltransferase, nucleotides 1 to 1209 of SEQ ID NO: 30 (protein, listed as Vibrio sp.)
# chain: MKNIITKRMLIILSSLFTIIGCNNDNSTTTNNNAIEIYVDRATLPTIQQMTKIVSQKTSNKKLISWSRYPITDKSLLKKINAEFFKEQFELTESLKNIILSENIDNLIIHGNTLWSIDVVDIIKEVNLLGKNIPIELHFYDDGSAEYVRIYEFSKLPESEQKYKTSLSKNNIKFSIDGTDSFKNTIENIYGFSQLYPTTYHMLRADIFDTTLKINPLRELLSNNIKQMKWDYFKDFNYKQKDIFYSLTNFNPKEIQEDFNKNSNKNFIFIGSNSATATAEEQINIISEAKKENSSIITNSISDYDLFFKGHPSATFNEQIINAHDMIEINNKIPFEALIMTGILPDAVGGMGSSVFFSIPKEVKNKFVFYKSGTDIENNSLIQVMLKLNLINRDNIKLISDI
# modifications: CDS (1)..(1209) /gene=“FAJ16-23ST” /product=“Beta-galactoside- alpha 2,3-sialyltransferase”
# Key:
# Assay type in all cases: biochemical
# [1] = system: β-galactoside-α2,3-sialyltransferase from Photobacterium phosphoreum JT-ISH-467; assay: Determination of binding mode of sialic acid using pyridylaminated sugar chain, HPLC; conditions: acceptor 2.0 μM, CMP-NeuAc 5.7 μM, enzyme 20 mU/ml, pH 6.0, 25° C., 3 hours
# Method: (§1) Using the enzyme obtained in Example 2, the enzymatic reaction was carried out using a pyridylaminated sugar chain as a glycosyl acceptor substrate. The pyridylaminated sugar chain used for analysis was pyridylaminated lactose (Galβ1-4Glc-PA, Takara Bio Inc., Japan). The glycosyl acceptor substrate, CMP-NeuAc and the enzyme were dissolved at 2.0 μM, 5.7 μM and 20 mU/ml, respectively, in 25 μl of 20 mM cacodylate buffer (pH 6.0), and then reacted at 25° C. for 3 hours. After the reaction, the reaction solution was treated at 100° C. for 2 minutes to inactivate the enzyme, followed by HPLC to analyze the reaction product.
# The HPLC system used was Shimadzu LC10A (Shimadzu Corporation, Japan) and the analytical column used was Takara PALPAK Type R (Takara Bio Inc., Japan). The column which had been equilibrated with 100 mM acetate-triethylamine (pH 5.0) containing 0.15% N-butanol was injected with the reaction solution diluted with Eluent A (100 mM acetate-triethylamine, pH 5.0). […] The analysis was performed under the following conditions: flow rate: 1 ml/min, column temperature: 40° C., detection: fluorescence (Ex: 320 nm, Em: 400 nm).
# [2] = Confirmation of α2,3 sialyltransferase activity of E. coli-expressed enzyme with pyridylaminated lactose, HPLC; conditions: pyridylaminated lactose 2.0 μM, CMP-sialic acid 5.7 μM, pH 6.0, 25° C., 6 hours
# Method: as §1
# The HPLC system used was Shimadzu LC10A (Shimadzu Corporation, Japan) and the analytical column used was Takara PALPAK Type R (Takara Bio Inc., Japan). The column which had been equilibrated with 100 mM acetate-triethylamine (pH 5.0) containing 0.15% N-butanol was injected with the reaction solution diluted with Eluent A (100 mM acetate-triethylamine, pH 5.0). For elution of the pyridylaminated sugar chain, Eluent A (100 mM acetate-triethylamine, pH 5.0) and Eluent B (100 mM acetate-triethylamine containing 0.5% n-butanol, pH 5.0) were used to successively elute the pyridylaminated sugar chain with a linear gradient of 30% to 100% Eluent B (0 to 35 minutes) and then 100% Eluent B (35 to 50 minutes). The analysis was performed under the following conditions: flow rate: 1 ml/min, column temperature: 40° C., detection: fluorescence (Ex: 320 nm, Em: 400 nm).
# As in the case of Example 3, pyridylaminated lactose (Galβ1-4Glc-PA, PA-Sugar Chain 026, Takara Bio Inc., Japan) was used as a glycosyl acceptor to carry out the enzymatic reaction. After the reaction, the reaction solution was heated at 95° C. for 5 minutes to inactivate the enzyme, followed by HPLC analysis. It should be noted that the enzymatic reaction was accomplished at 25° C. for 6 hours using pyridylaminated lactose and CMP-sialic acid dissolved at 2.0 μM and 5.7 μM, respectively, in 25 μl of 20 mM cacodylate buffer (pH 6.0) (Reaction 1). On the other hand, a control experiment (Reaction 2) was carried out using a reaction solution free from CMP-sialic acid. Further, to clarify the retention time of standards, the crude enzyme solution was inactivated by thermal treatment (95° C., 5 minutes) and tested in the presence of pyridylaminated lactose and pyridylaminated α2,3-sialyllactose (pyridylaminated 3′-sialyllactose) (Neu5Acα2-3Galβ1-4Glc-PA, PA-Sugar Chain 029, Takara Bio Inc., Japan).
# [3] = Sialyltransferase activity in E. coli homogenate (crude enzyme solution), transfer of 14C-NeuAc from CMP-NeuAc to lactose; conditions: lactose acceptor; for Radioactivity (cpm) Average: average of duplicate; for Sialyltransferase activity in crude enzyme solution (in words): CMP-14C-NeuAc donor
# Method: Sialyltransferase activity was measured as described in J. Biochem., 120, pp. 104-110 (1996) (which is hereby incorporated by reference in its entirety). More specifically, the enzymatic reaction was accomplished by using CMP-NeuAc (70 nmol, containing 25000 cpm CMP-NeuAc in which NeuAc was labeled with ^14C, 356 cpm/nmol; NeuAc represents N-acetylneuraminic acid) as a glycosyl donor substrate, lactose (1.25 μmol) as a glycosyl acceptor substrate, NaCl added to give a concentration of 0.5 M, and the enzyme-containing reaction solution (30 μl) prepared as described above. The enzymatic reaction was carried out at 25° C. for 10 to 30 minutes. After completion of the reaction, 1.97 ml of 5 mM phosphate buffer (pH 6.8) was added to the reaction solution, which was then applied to a Dowex 1×8 (PO4^3− form, 0.2×2 cm, BIO-RAD) column. The radioactivity was measured for the reaction product, i.e., sialyllactose contained in the eluate (0 to 2 ml) from this column to calculate the enzyme activity.
# An induction experiment of protein expression was performed on the two 467-N0C0 clones and the three 467-N2C0 clones obtained in (4) above. A single colony of E. coli TB1 having the expression vector pTrc99A carrying each clone was inoculated into LB medium (5 ml) containing an antibiotic, ampicillin (final concentration 100 μg/mL), and pre-cultured at 30° C. to about A600=0.5, followed by addition of IPTG (isopropyl-β-D(−)-thiogalactopyranoside, Wako Pure Chemical Industries, Ltd. Japan) at a final concentration of 1 mM. After culturing with shaking at 30° C. for an additional 4 hours, the cells in 2 ml culture solution were collected by centrifugation. These cells were suspended in 200 μl of 20 mM BisTris buffer (pH 7.0) containing 0.336% Triton X-100 and 0.5 M sodium chloride, and ultrasonically homogenized under ice cooling. The resulting homogenate was defined as a crude enzyme solution and provided for activity measurement. The reaction was carried out in duplicate, and the reaction composition was the same as shown in Example 1, except that the reaction time was set to 15 hours.
# In the same manner as shown in Example 5(5), an induction experiment of protein expression was performed on 2 clones, i.e., the first clone of ISH224-N0C0 and the first clone of ISH224-N1C0 to measure their enzyme activity.
# In the same manner as shown in Example 5(5), an induction experiment of protein expression was performed on 3 clones, i.e., the first clone of FAJ-N0C0 as well as the first and second clones of FAJ-N1C0 to measure their enzyme activity.
# [4] = JT-ISH-467 gene clones, 25° C., reaction time 15 hours
# [5] = JT-FAJ-16 gene clones, as Example 5(5)
Molecule,Reaction product from pyridylaminated sugar chain (binding mode of sialic acid) [1],"α2,3 sialyltransferase activity (formation of pyridylaminated α2,3-sialyllactose) [2]","Radioactivity (cpm) Round 1 [3, 4]","Radioactivity (cpm) Round 2 [3, 4]","Radioactivity (cpm) Average [3, 4]",Sialyltransferase activity in crude enzyme solution (in words) [3],"Radioactivity (cpm) Round 1 [3, 5]","Radioactivity (cpm) Round 2 [3, 5]","Radioactivity (cpm) Average [3, 5]"
"OC[C@@H](O)[C@@H](O[C@@H]1O[C@H](CO)[C@H](O)[C@H](O)[C@H]1O)[C@H](O)[C@@H](O)CNc1ccccn1 [PA-Sugar Chain 026, pyridylaminated lactose]","pyridylaminated α2,3-sialyllactose (pyridylaminated 3′-sialyllactose) was synthesized",,,,,,,,
B1,,"found to have α2,3 sialyltransferase activity",8496 cpm,7486 cpm,7991 cpm,sialyltransferase activity in both crude enzyme solutions,,,
B2,,"found to have α2,3 sialyltransferase activity",7097 cpm,7809 cpm,7453 cpm,sialyltransferase activity in both crude enzyme solutions,,,
B3,,"had α2,3 sialyltransferase activity",10514 cpm,9033 cpm,9773.5 cpm,sialyltransferase activity was also observed,,,
B4,,"a peak of pyridylaminated α2,3-sialyllactose (pyridylaminated 3′-sialyllactose) was detected",,,,sialyltransferase activity was observed,11012 cpm,12056 cpm,11534 cpm
